# In US20100075374A1, “Methods for capturing nascent proteins” (AMBERGEN, INC., priority 2007, published 2010):
# What was measured:
# [1] = target: T1, human recombinant ZAP-70 tyrosine kinase (Homo sapiens, UniProt P43403); assay: kinase substrate profiling on photo-transferred proteins, phosphotyrosine detection; type: biochemical; conditions: plus ATP kinase reaction, 30 min at 37° C.
# T1 construct: purchased Invitrogen Corporation
# T1 sequence (P43403 1-619): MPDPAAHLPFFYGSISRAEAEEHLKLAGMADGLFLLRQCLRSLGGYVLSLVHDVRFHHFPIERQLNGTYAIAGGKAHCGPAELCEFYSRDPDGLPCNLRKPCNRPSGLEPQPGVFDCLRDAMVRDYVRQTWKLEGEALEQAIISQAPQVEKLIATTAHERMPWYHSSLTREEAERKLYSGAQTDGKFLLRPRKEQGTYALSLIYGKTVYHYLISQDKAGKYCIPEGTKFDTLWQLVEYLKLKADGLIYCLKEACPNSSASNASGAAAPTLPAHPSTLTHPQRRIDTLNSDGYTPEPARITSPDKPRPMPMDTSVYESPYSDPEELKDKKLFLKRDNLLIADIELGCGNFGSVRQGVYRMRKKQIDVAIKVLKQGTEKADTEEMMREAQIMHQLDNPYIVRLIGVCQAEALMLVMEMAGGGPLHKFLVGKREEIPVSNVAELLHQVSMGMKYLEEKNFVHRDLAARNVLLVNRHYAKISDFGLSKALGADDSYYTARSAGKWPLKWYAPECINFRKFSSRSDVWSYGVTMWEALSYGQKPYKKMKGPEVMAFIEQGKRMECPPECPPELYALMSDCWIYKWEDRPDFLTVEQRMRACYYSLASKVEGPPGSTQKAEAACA
# [2] = target: T2, human recombinant Src pp^60 tyrosine kinase (Homo sapiens, UniProt P12931); assay: as above; type: biochemical; conditions: plus ATP kinase reaction, 30 min at 37° C.
# T2 construct: purchased Invitrogen Corporation
# PKCα = target: T3, PKCα (Homo sapiens, UniProt P17252); assay: PMA mediated PKCα sub-cellular translocation measured by kinase activity after photocleavable antibody isolation; type: cell-based; conditions: HeLa cells, 200 nM PMA for 5 min, n=4
# T3 construct: isolate and photo-release endogenous PKCa from the undiluted detergent fractionated HeLa cell extracts; endogenous in cells; host or cells: HeLa cells (ATCC)
# Procedure: Cultured HeLa cells (ATCC; Manassas, Va.) were stimulated for 5 min with 200 nM Phorbol-12-Myristate-13-Acetate (PMA; EMD Biosciences, Inc., San Diego, Calif.) and subsequently detergent fractionated into sub-cellular compartments according to reported procedures [Ramsby et al. (1994) Electrophoresis 15, 265-277; Ramsby & Makowski. (1999) Methods Mol Biol 112, 53-66; Chiang et al. (2000) J Biochem Biophys Methods 46, 53-68]. PMA is a potent activator of PKCα and is well known to cause translocation of the kinase from the cytosolic to the membrane sub-cellular compartments [Ross & Joyner. (1997) Endothelium 5, 321-332; Bazan & Rapoport. (1996) JPharmacol Toxicol Methods 36, 87-95; Yazlovitskaya & Melnykovych. (1995) Cancer Lett 88, 179-183].
# A photocleavable antibody conjugated solid affinity matrix was prepared and used to isolate and photo-release the antigen into solution essentially as described in Example 2 except that in this case, a photocleavable anti-IgG secondary antibody was used to immobilize the unlabeled primary antibody onto the solid affinity matrix. This antibody affinity matrix was used to isolate and photo-release endogenous PKCa from the undiluted detergent fractionated HeLa cell extracts. […]
# MDM2 bait = target: T4, MDM2 bait (Homo sapiens, UniProt Q00987); assay: p53-MDM interaction assay, pre-formed complexes of cell-free expressed proteins, contact photo-transfer; type: binding; conditions: complexes formed before contact photo-transfer
# T4 construct: made in house; host or cells: rabbit reticulocyte lysate, coupled cell-free transcription/translation
# T4 sequence (Q00987 whole entry): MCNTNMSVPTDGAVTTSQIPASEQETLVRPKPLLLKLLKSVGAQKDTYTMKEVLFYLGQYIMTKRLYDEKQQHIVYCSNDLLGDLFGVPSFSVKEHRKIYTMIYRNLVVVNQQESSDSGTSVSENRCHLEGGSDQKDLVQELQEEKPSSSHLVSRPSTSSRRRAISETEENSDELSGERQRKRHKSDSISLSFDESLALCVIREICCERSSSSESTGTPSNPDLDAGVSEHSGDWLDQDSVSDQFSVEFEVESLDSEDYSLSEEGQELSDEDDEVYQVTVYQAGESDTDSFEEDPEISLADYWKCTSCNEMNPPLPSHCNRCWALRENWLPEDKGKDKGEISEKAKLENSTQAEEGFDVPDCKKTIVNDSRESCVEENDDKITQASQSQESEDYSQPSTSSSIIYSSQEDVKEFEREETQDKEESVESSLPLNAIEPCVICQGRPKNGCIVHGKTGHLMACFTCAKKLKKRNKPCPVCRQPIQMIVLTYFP
# Procedure: BODIPY-FL-tRNA^COMPLETE was used for fluorescence labeling (at 2 μM) instead of BODIPY-FL-tRNA^Lys. The cell-free expressed p53 “probe” was labeled only with BODIPY-FL using the BODIPY-FL-tRNA^COMPLETE and was not labeled with PC-biotin in any way. […] The “bait” proteins were labeled only with PC-Biotin-tRNA^COMPLETE (at 1 μM) and not with BODIPY-FL in any way. The Translation Dilution Buffer (TDB) used to stop the reaction and prepare the sample contained no BSA or other protein carrier, 10 mM DTT instead of 2 mM and additionally contained 20 mM EDTA added from a 500 mM pH 8.0 stock and 4 mM cycloheximide (Sigma-Aldrich, St. Louis, Mo.) added from a 355 mM stock in DMSO.
# All steps were performed at +4° C. or on an ice water bath and all reagents and samples were also kept under these conditions during the procedure. […] To facilitate addition of small bead volumes to the samples, the beads were initially prepared to a 10% (v/v) bead suspension with 5 mM DTT in PBS. The samples, now 80 μL each, were then mixed with 10 μL of the 10% (v/v) bead suspension corresponding to addition of 1 μL packed bead volume. After capture on the NeutrAvidin beads for 1 hr, beads were washed by mixing 3× briefly (briefly=5 sec vortex mix) in 400 bead volumes per wash of PBS pH 7.5 and 5 mM DTT. […]
compound,measurement,setting,value
"CK: cell-free expressed human casein kinase II, contact photo-transferred to microarray",phosphorylation by ZAP-70,[1],does not phosphorylate
same,phosphorylation by Src pp^60,[2],significant phosphorylation
"CCCCCCCCCCCCCC(=O)O[C@@H]1[C@@H](C)[C@@]2(O)[C@@H](C=C(CO)C[C@]3(O)C(=O)C(C)=C[C@@H]23)[C@@H]2C(C)(C)[C@]12OC(C)=O [PMA, Phorbol-12-Myristate-13-Acetate]","PKCα distribution, membrane, based on kinase activity",PKCα; baseline 21±2% membrane,84±3%
same,"PKCα distribution, cytosol, based on kinase activity",PKCα; baseline 79±7% cytosol,16±4%
p53 “probe”: cell-free expressed human p53 labeled only with BODIPY-FL using BODIPY-FL-tRNA COMPLETE,binding of cell-free expressed p53 probe to MDM bait,MDM2 bait,selective binding
